The source of these data is article PMC1373692.

Like-named read-outs stand apart in the source and are kept apart here.

Series [1] concerns the target T1, RecJ (native wild-type) (Escherichia coli, UniProt P21893 1-577).
T1 sequence: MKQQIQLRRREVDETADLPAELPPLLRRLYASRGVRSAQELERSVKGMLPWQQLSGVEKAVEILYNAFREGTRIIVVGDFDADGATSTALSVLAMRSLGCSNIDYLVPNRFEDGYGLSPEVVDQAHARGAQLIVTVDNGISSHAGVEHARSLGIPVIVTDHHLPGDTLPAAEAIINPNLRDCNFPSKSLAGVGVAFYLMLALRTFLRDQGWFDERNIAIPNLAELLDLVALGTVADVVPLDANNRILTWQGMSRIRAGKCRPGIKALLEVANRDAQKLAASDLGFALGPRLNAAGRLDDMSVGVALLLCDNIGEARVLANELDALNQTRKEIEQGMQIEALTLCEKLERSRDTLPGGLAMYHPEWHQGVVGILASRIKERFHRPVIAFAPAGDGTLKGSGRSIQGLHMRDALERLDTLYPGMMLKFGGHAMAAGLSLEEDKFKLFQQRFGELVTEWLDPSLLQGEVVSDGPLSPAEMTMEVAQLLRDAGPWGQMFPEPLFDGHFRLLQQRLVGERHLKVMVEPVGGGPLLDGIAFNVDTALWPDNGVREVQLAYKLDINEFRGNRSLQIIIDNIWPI
The series is described as follows: EMSA. A general note: Mobility shift assays separate free from complexed probe on a gel.

The target in series [2] is T1, RecJ (native wild-type). The series is described as follows: EMSA. This is another data set of the same source.
Series [3] concerns the target T1, RecJ (native wild-type). Description: EMSA. This is another data set of the same source.
The target of series [4] is T1, RecJ (native wild-type). Description: EMSA. The source holds these as a separate data set.
In a further series the target is SSB (UniProt P0AGE0 2-178). Description: EMSA.
Chain of SSB (P0AGE0 2-178): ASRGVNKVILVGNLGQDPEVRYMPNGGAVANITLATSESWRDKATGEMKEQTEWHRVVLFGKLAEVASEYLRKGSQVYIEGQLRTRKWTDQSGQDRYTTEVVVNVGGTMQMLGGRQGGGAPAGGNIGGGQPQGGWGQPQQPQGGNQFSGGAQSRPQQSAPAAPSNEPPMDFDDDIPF
Series [5] addresses RecJ (native wild-type);SSB (Escherichia coli;Escherichia coli?, UniProt P21893;P0AGE0 1-577;2-178, |). Description: EMSA, supershift.
The target in another series is T2, RecJf (MBP-RecJ fusion) (UniProt P21893 1-577).
T2 sequence: T1 sequence
The series is described as follows: EMSA.

Chain of RecJ (native wild-type);SSB (P0AGE0 2-178, one chain of several): as the sequence (P0AGE0 2-178) above

B1: A/C 10 nt 5' tail (dsDNA)
DNA 1: GCCCAGGTGGCAGGCCCTAGGGTGGAGGGGAGGCCGCCGGCATGGGGACGCGATGGGCGGAGGCG
DNA 2: CGCCTCCGCCCATCGCGTCCCCATGCCGGCGGCCTCCCCTCCACCCTAGGGCCTG
modifications: 5' phosphate on A from labeling
As usually defined, the Kd is a measure of binding affinity in units of concentration. Low values mean higher affinity, high ones lower affinity. Molecule B1 gave a Kd with RecJ (native wild-type) [1] of 9.5 nM.

B2: A/B 20 nt 5' tail (dsDNA)
DNA 1: B1 DNA 1
DNA 2: CGCCTCCGCCCATCGCGTCCCCATGCCGGCGGCCTCCCCTCCACC
modifications: 5' phosphate on A from labeling
The molecule B2 gave a Kd with RecJ (native wild-type) [1] of 33 nM.

B3: A 8 nt 5' tail (dsDNA)
DNA 1: B1 DNA 1
DNA 2: CGCCTCCGCCCATCGCGTCCCCATGCCGGCGGCCTCCCCTCCACCCTAGGGCCTGCC
modifications: 5' phosphate on A from labeling
On to B3, for which the binding result in the series with RecJ (native wild-type) [2] is reported as “binds”.

B4: A/E 65 bp duplex (dsDNA)
DNA 1: B1 DNA 1
DNA 2: CGCCTCCGCCCATCGCGTCCCCATGCCGGCGGCCTCCCCTCCACCCTAGGGCCTGCCACCTGGGC
modifications: 5' phosphate on A from labeling
In the case of B4, the binding result with RecJ (native wild-type) [3] is listed as “no binding”.

B5: oligonucleotide A (65mer) (ssDNA)
DNA: B1 DNA 1
modifications: 5' phosphate from labeling
Take B5: the binding result (with RecJ (native wild-type) [4]; with SSB; in series [5]; in the series with RecJf (MBP-RecJ fusion)) was “binds” in each case.

B6: A/D 4 nt 5' tail (dsDNA)
DNA 1: B1 DNA 1
DNA 2: CGCCTCCGCCCATCGCGTCCCCATGCCGGCGGCCTCCCCTCCACCCTAGGGCCTGCCACCT
modifications: 5' phosphate on A from labeling
Take B6: the binding result in the series with RecJ (native wild-type) [3] is “no binding”.

B7: A 5 nt 5' tail (dsDNA)
DNA 1: B1 DNA 1
DNA 2: CGCCTCCGCCCATCGCGTCCCCATGCCGGCGGCCTCCCCTCCACCCTAGGGCCTGCCACC
modifications: 5' phosphate on A from labeling
Turning to B7, the binding result with RecJ (native wild-type) [2] is on record as “no binding”.

B8: A 7 nt 5' tail (dsDNA)
DNA 1: B1 DNA 1
DNA 2: CGCCTCCGCCCATCGCGTCCCCATGCCGGCGGCCTCCCCTCCACCCTAGGGCCTGCCA
modifications: 5' phosphate on A from labeling
Regarding B8, in the series with RecJ (native wild-type) [2], the binding result is recorded as “binds”.

B9: A 9 nt 5' tail (dsDNA)
DNA 1: B1 DNA 1
DNA 2: CGCCTCCGCCCATCGCGTCCCCATGCCGGCGGCCTCCCCTCCACCCTAGGGCCTGC
modifications: 5' phosphate on A from labeling
For B9, in the series with RecJ (native wild-type) [2], the binding result was “binds”.
